This is an account of results in patent publication US20260144239A1, “Immune Cell-Engrafted Non-Human Animals and Non-Human Animal Models” (LAPIX Therapeutics, Inc., priority 2022, published 2026).

Series [1] concerns humans. As to conditions: in vivo; cited from earlier work.
Series [2] relates to engrafted mice. Kind of series: Immunogenicity in engrafted mice (NRGS mice with human immune system), antibody titers by ELISA. Type of series: in vivo, mouse. As to the method:
(§1) Three healthy human donors were used to generate three engrafted mice designated HD1, HD2 and HD3. On Day 29 and Day 36, HD1, HD2 and HD3 were administered FVIII. The same amounts of antigen were administered to three C57B/6 control mice on the same date. Two weeks later (on Day 43), blood from each mouse was collected. Titers of mouse anti-FVIII antibodies, human anti-FVIII antibodies, mouse anti-GAA antibodies and human anti-GAA antibodies were measured using ELISA (FIGS. 8A-8B).
(§2) Three healthy human donors were used to generate three engrafted mice designated HD1, HD2 and HD3. On Day 29 and Day 36, HD1, HD2 and HD3 were administered GAA. The same amounts of antigen were administered to three C57B/6 control mice on the same date. Two weeks later (on Day 43), blood from each mouse was collected. Titers of mouse anti-GAA antibodies, human anti-GAA antibodies, mouse anti-FVIII antibodies and human anti-FVIII antibodies were measured using ELISA (FIGS. 8C-8D).
(§3) Healthy human donors were used to generate eight engrafted mice. […] The same amount of antigen was administered to three C57B/6 control mice on the same date. Two weeks later (on Day 43), blood from each mouse was collected.
(§4) Healthy human donors were used to generate 11 engrafted mice. […] The same amount of antigen was administered to three C57B/6 control mice on the same date. Two weeks later (on Day 43), blood from each mouse was collected.

In series [3] the test system is C57B/6 control mice. Nature of the series: Immunogenicity in C57B/6 control mice, antibody titers by ELISA. Type of series: in vivo, mouse. Here is the method: as §1, §2, §3, §4
For series [4], the system named is engrafted mice. Nature of the series: Human CD20 on B cells of engrafted mice that developed antibodies (flow cytometry). Type of series: in vivo, mouse. The settings on record: CD20+/CD19+ cells (FIGS. 9A-9C). An excerpt:
Presence of human CD20 was detected on B cells of mice that developed antibodies to different biologics. CD20 is expressed on activated, antibody-producing B cells.
In general terms: In flow cytometry, cells or beads pass a laser one at a time.

Take “GAA: biologic antigen administered to engrafted and C57B/6 mice; abbreviation not spelled out in the text”: the “clinically reported immunogenicity rate in humans” value in series [1] is 89-100%. For the same substance, the “percent of engrafted mice that developed human antibodies to the administered antigen” value in series [2] (12 (FVIII), 14 (GAA), eight (IFN-β), 11 (AAV9) engrafted mice, antigen Day 29 and Day 36, blood Day 43, ELISA) was found to be 100%. In addition, the “engrafted mice that developed mouse antibodies to the administered antigen” value in series [2] (antigen Day 29 and Day 36, blood Day 43, ELISA) is listed as “none”. The “mouse antibody titer to the antigen not administered (anti-FVIII after GAA, anti-GAA after FVIII)” value in series [2] (engrafted mice) and in series [3] (C57B/6 control mice) was “none” in each case. For the same substance, the “human antibody titer to the antigen not administered (anti-FVIII after GAA, anti-GAA after FVIII)” value in series [2] (engrafted mice, specificity control of titer assay) is recorded as “None”; in series [3] (C57B/6 control mice, specificity control of titer assay), “None”. In series [2] (three engrafted mice (HD1, HD2, HD3), antigen on Day 29 and Day 36, blood on Day 43, ELISA), the “engrafted mice that developed human antibodies to the administered antigen (number of mice)” value is “all three”. Moreover, the “observed immunogenicity rate in the engrafted mice” value in series [2] (three engrafted mice, human antibodies to administered antigen, antigen Day 29 and Day 36, blood Day 43) is “about 100%”. The “percent of C57B/6 mice that developed mouse antibodies to the administered antigen” value was found to be 100% in series [3] (six (FVIII), 5 (GAA), three (IFN-β), three (AAV9) C57B/6 mice) and 100% in series [3] (three C57B/6 mice, first experiment (FIG. 8B, 8D)). Further, in series [4], the “CD20-expressing B cells after antigen exposure” value is on record as “had CD20-expressing B cells”.
